How the values were obtained:
Test in all cases: IEDB peptide-MHC binding, purified MHC/competitive/radioactivity; ≥ and ≤ were set here for values at or beyond the usual limits of such assays
HLA-A*02:03 = target: HLA-A*02:03
HLA-A*02:02 = target: HLA-A*02:02
HLA-A*68:02 = target: HLA-A*68:02
HLA-A*02:06 = target: HLA-A*02:06
HLA-A*02:01 = target: HLA-A*02:01
[1] = source organism: Vaccinia virus WR
[2] = source organism: Hepacivirus hominis
[3] = source organism: Mammarenavirus whitewaterense
[4] = source organism: Mammarenavirus choriomeningitidis

Row | Sequence | IC50 (HLA-A*02:03; [1]) [nM] | IC50 (HLA-A*02:02; [1]) [nM] | IC50 (HLA-A*68:02; [1]) [nM] | IC50 (HLA-A*02:06; [1]) [nM] | IC50 (HLA-A*02:01; [1]) [nM] | also measured
1 | YIILFILFFA | 674 | 263 | 270 | 1050 | 234 | 
2 | IQYRQQLEL | 45 | 511 | 3570 | 41 | 258 | 
3 | LLIAITAFT |  |  |  |  |  | IC50 (HLA-A*02:03; [2]): 12 nM; IC50 (HLA-A*02:02; [2]): 37 nM; IC50 (HLA-A*68:02; [2]): 1050 nM; IC50 (HLA-A*02:06; [2]): 461 nM; IC50 (HLA-A*02:01; [2]): 174 nM
4 | FISPASISSV | 0.11 | 3 | 17 | 2 | 1.4 | 
5 | IISSKQYPA | 612 | 164 | 3580 | 1160 | 410 | 
6 | LIVMLLFAGV |  |  |  |  |  | IC50 (HLA-A*02:03; [2]): 358 nM; IC50 (HLA-A*02:02; [2]): 3390 nM; IC50 (HLA-A*68:02; [2]): 4290 nM; IC50 (HLA-A*02:06; [2]): 169 nM; IC50 (HLA-A*02:01; [2]): 1470 nM
7 | LIDFYLCFL |  |  |  |  |  | IC50 (HLA-A*02:03; source organism: SARS-CoV1): 61 nM; IC50 (HLA-A*02:02; source organism: SARS-CoV1): 8.3 nM; IC50 (HLA-A*68:02; source organism: SARS-CoV1): 93 nM; IC50 (HLA-A*02:06; source organism: SARS-CoV1): 11 nM; IC50 (HLA-A*02:01; source organism: SARS-CoV1): 0.9 nM
8 | QLMYDIINSV | 0.14 | 1.9 | 165 | 5.6 | 0.78 | 
9 | NTISGNIYSA | 314 | 269 | 0.19 | 393 | 640 | 
10 | IVYGRSNAI | 16 | 15 | 6.1 | 30 | 228 | 
11 | GLSSGFYFEI | 782 | 48 | 1720 | 1740 | 176 | 
12 | RIASILSLET | 449 | 583 | 442 | 751 | 985 | 
13 | TIGTIAGGV | 17 | 298 | 70 | 1140 | 772 | 
14 | NITRLEVIGL | 95 | 907 | 301 | 197 | 424 | 
15 | IMSIGFEARI | 1500 | 703 | 61 | 1600 | 1590 | 
16 | AIFNNRNLAA | 103 | 450 | 2860 | 774 | 1330 | 
17 | QLMCQPILL |  |  |  |  |  | IC50 (HLA-A*02:03; source organism: SARS-CoV1): 12 nM; IC50 (HLA-A*02:02; source organism: SARS-CoV1): 3 nM; IC50 (HLA-A*68:02; source organism: SARS-CoV1): 140 nM; IC50 (HLA-A*02:06; source organism: SARS-CoV1): 77 nM; IC50 (HLA-A*02:01; source organism: SARS-CoV1): 0.96 nM
18 | IVAAVIIMAI | 2610 | 727 | 95 | 4510 | 4430 | 

Row | Sequence | IC50 (HLA-A*02:03; [1]) [nM] | IC50 (HLA-A*02:02; [1]) [nM] | IC50 (HLA-A*68:02; [1]) [nM] | IC50 (HLA-A*02:06; [1]) [nM] | IC50 (HLA-A*02:01; [1]) [nM] | also measured
19 | FLAFVVFLL |  |  |  |  |  | IC50 (HLA-A*02:03; source organism: SARS-CoV1): 88 nM; IC50 (HLA-A*02:02; source organism: SARS-CoV1): 0.41 nM; IC50 (HLA-A*68:02; source organism: SARS-CoV1): 391 nM; IC50 (HLA-A*02:06; source organism: SARS-CoV1): 2.6 nM; IC50 (HLA-A*02:01; source organism: SARS-CoV1): 0.24 nM
20 | SIPISELSRL | 61 | 252 | 422 | 78 | 2260 | 
21 | SLPSYAAYA |  |  |  |  |  | IC50 (HLA-A*02:03; source organism: SARS-CoV1): 2.6 nM; IC50 (HLA-A*02:02; source organism: SARS-CoV1): 6.7 nM; IC50 (HLA-A*68:02; source organism: SARS-CoV1): 334 nM; IC50 (HLA-A*02:06; source organism: SARS-CoV1): 8.7 nM; IC50 (HLA-A*02:01; source organism: SARS-CoV1): 3.9 nM
22 | RVFKKIMSI | 0.18 | 350 | 170 | 75 | 80 | 
23 | GALDVSASV |  |  |  |  |  | IC50 (HLA-A*02:03; source organism: SARS-CoV1): 2.3 nM; IC50 (HLA-A*02:02; source organism: SARS-CoV1): 0.72 nM; IC50 (HLA-A*68:02; source organism: SARS-CoV1): 2.9 nM; IC50 (HLA-A*02:06; source organism: SARS-CoV1): 2.3 nM; IC50 (HLA-A*02:01; source organism: SARS-CoV1): 3.4 nM
24 | FITVLTSVDI | 237 | 1420 | 1240 | 1270 | 603 | 
25 | ILMTHFFSI |  |  |  |  |  | IC50 (HLA-A*02:03; [2]): 1 nM; IC50 (HLA-A*02:02; [2]): 6.7 nM; IC50 (HLA-A*68:02; [2]): 185 nM; IC50 (HLA-A*02:06; [2]): 4.7 nM; IC50 (HLA-A*02:01; [2]): 1.3 nM
26 | ATLNTLITLI | 28 | 32 | 1050 | 198 | 543 | 
27 | NMCNSDVSV | 30 | 80 | 202 | 97 | 88 | 
28 | FVDTMSIYIA | 2390 | 154 | 229 | 1100 | 1630 | 
29 | CNYTKFWYV |  |  |  |  |  | IC50 (HLA-A*02:03; [3]): 794 nM; IC50 (HLA-A*02:02; [3]): 1940 nM; IC50 (HLA-A*68:02; [3]): 247 nM; IC50 (HLA-A*02:06; [3]): 35 nM; IC50 (HLA-A*02:01; [3]): 725 nM
30 | TLNTLITLI | 0.6 | 0.99 | 472 | 941 | 51 | 
31 | ALMDLLMFS |  |  |  |  |  | IC50 (HLA-A*02:03; [4]): 104 nM; IC50 (HLA-A*02:02; [4]): 0.94 nM; IC50 (HLA-A*68:02; [4]): 2990 nM; IC50 (HLA-A*02:06; [4]): 14 nM; IC50 (HLA-A*02:01; [4]): 2.4 nM
32 | FTSDYPFYV | 3.9 | 2.1 | 1.1 | 3.6 | 1.5 | 
33 | RLLLLGLLLL |  |  |  |  |  | IC50 (HLA-A*02:03; [2]): 4250 nM; IC50 (HLA-A*02:02; [2]): 1200 nM; IC50 (HLA-A*68:02; [2]): 3610 nM; IC50 (HLA-A*02:06; [2]): 1050 nM; IC50 (HLA-A*02:01; [2]): 496 nM
34 | YLGPRVCWL | 3.4 | 0.9 | 514 | 23 | 2.2 | 
35 | TLIDFYLCFL |  |  |  |  |  | IC50 (HLA-A*02:03; source organism: SARS-CoV1): 3.6 nM; IC50 (HLA-A*02:02; source organism: SARS-CoV1): 0.041 nM; IC50 (HLA-A*68:02; source organism: SARS-CoV1): 151 nM; IC50 (HLA-A*02:06; source organism: SARS-CoV1): 3 nM; IC50 (HLA-A*02:01; source organism: SARS-CoV1): 2.2 nM

From the Immune Epitope Database (IEDB)
